From the nanobody polyreactivity screen of Harvey et al. (2022)

Assay: yeast display, Sf9 membrane polyspecificity reagent, FACS + sequencing; frameworks hold sequencing errors
Summary of the method: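 Sorting gates, low and high (top ~1%), were placed on anti-HA fluorescence to track expression and on streptavidin fluorescence to track reagent binding. A clone's polyreactivity label is taken from the gate it came out of. The reagent was 10% biotinylated, detergent-solubilized Sf9 membrane, applied for 1 hour at 4 °C to galactose-induced yeast display cells.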

| Sequence | polyreactivity (PSR sort gate) |
| --- | --- |
| QVQLVESGGGLVQAGGSLRLSCAASGFIFAINAMGWYRQAPGKERELVAAITSSGGSTYYADSVKGRFTISRDNAKNTVYLQMNSLKPEDTAVYYCAAPQGNPSQDWEDYWGQGTQVTVSS | low polyreactivity |
| QVQLVESGGGLVQAGGSLRLSCAASGSTFVYYDMGWYRQAPGKERELVAAISRGGGSTYYADSVKGRFTISRDNAKNTVYLQMNSLKPEDTAVYYCAAVAGYRYYWGQGTQVTVSS | high polyreactivity |
| QVQLVESGGGLVQAGGSLRLSCAATGRIFYRNAMGWYRQAPGKERELVAAIRGSGGRTYYADSVKGRFTISRDNAKNTVYLQMNSLKPEDTAVYYCAAYGYYVEHPRGLSGPYDDDYWGQGTQVTVSS | low polyreactivity |
| QVQLVESGRGLVQAGGSLRLSCAASGRTFPVYAMGWYRQAPGKERELVAAITYSGGSTSYADSVKGRFTISRDNAKNTVYLQMNSLKPEDTAVYYCAADRAYYSRGIGSVGYYYWGQGTQVTVSS | low polyreactivity |
| QFQLVESGGGLVQARGSLRLSCAASGSTFSQYAMGWYRQAPGKERELVAAITTSDGTTNYADSVKGRFTISRDNAKNTVFLQMNILQPEDTAVYYCNNEYFYYSFGYWGQGTQVTVSS | low polyreactivity |
| QVQLVESGGGLVQAGGSLRLSCAASGRISVYNAMGWYRQAPGKERELVAAISRGSTNYADSVKGRFTISRDNAKNTVYLQMNSLKPEDTAVYYCAARSVSFPWRRYAGYDYWGQGTQVTVSS | high polyreactivity |
| QVQLVESGGGLVQAGGSLRLSCAASGSTFEDNTMGWYRQAPGKEREFVADISNIGGDTTYADSVKGRFTISRDNAKNTVYLQMNSLKPEDTAVYYCAAVKGHSQVLSYGYWGQGTQVTVSS | low polyreactivity |
| QVQLVESVGGLVQAGGSLRLSSAASGITFQYYDMGWYRQAPGKERELVAAIDTSGGSTYYADSVKGRFTISRDNEKNTVYLHMNSLKREDTSVYYGAACYYGYSVYGRMYYWGQGTQVTVSS | low polyreactivity |
| QVQHVESGGGLVQAGGSLRLICAASGRIFLRNAMGWYRQAPGKERELVATITSRGGSTYYADAVKGRFTISRDNAKNTVYLQMNRLKPEDTAVYNCAAVPRRYRGFGYVYGGFYYWGQGTQVTVSS | low polyreactivity |
| QVQLVESGGALVQAGGSLRLSCAASGSTFHRNAMGWYRQAPGKERELVAAITSGGSTNYADSVKGRFTISRDNAMNTVYLQLNSLKPEDTAVYSCAKDYRHYNRGWYDYWGQGTQVTVSS | low polyreactivity |
| QVQLVESGGRLVQAGGSLRLSCAASGRIFRRYAMGWYRQAPGKERELVAAISGSGGSTYYADSVKGRFTISRDNAKNTVYLQMNCLKPEDTAVYYCAARVGLGYDRLKSEYNYWGQGTQVTVSS | high polyreactivity |
| QVQLVESGGGLVQAGGSLRLSCAASGSTFVDNAMGWYRQAPGKERELVAAINSTDITNYADSVKGRFTISRDNAKNTVYLQMNSLKPEDTAVYYCAKDLLKWRKYQWYYYWGQGTQVTVSS | low polyreactivity |
| QVQLVESGGGLVQAGGSLRLSCAASGRTFPAYAMGWYRQAPGKERELVAAISSSGSRTYYADSVKGRFTISRDNAKNTVYLQMNSLKPEDTAVYYCAARGGRRQKVNRDDYWGQGTQVTVSS | high polyreactivity |
| QVQLVESGGGLVQAGGSLRLSCAASGSTFGRYTMGWYRQAPRKERELVAAITSGGGSTYYADSVKGRFTISRDNAKNTVYLQMNSLKPEDTAVYYCAARSLVQDHAYGYNYWGQGTQVTVSS | low polyreactivity |
| QVQLVESGGAKVQAGGSLRLSCAASGRTFDYYVMGWNRQAPVKEREFVAAITWSGDSTYYADSVKGRFTISRENAKNTVYLQMNSLKPEDTAVYYCNADYYPTTFYAFVYMYDYWGQGTQVTVSS | low polyreactivity |
| QVQLVESGGGLVQAGGSLRLSCAASGSTFYANAMGWYRQAPGKERELVAAITRSGAGTYYADSVKGRFTISRDNAKNTVYLQMNSLKPEDTAVYYCNAGSSFWVSRIGYDYWGQGTQVTVSS | high polyreactivity |
| QVQLVESGGGLVQAGGSLRLSCAASGNTFDFYAMGWYRQAPGKEREFVAAISNGGSTTYADSVKGRFTISRDNAKNTVYLQMNSLKPEDTAVYYCAADPRNAEYDDASMDYWGQGTQVTVSS | high polyreactivity |
| QVQLVESGGGLVQAGGSLRLSCAASGITFYYYVMGWYRQAHGKERELVAAISNRGGSTYYADSVKGRFTISRDNAKNTVYLQMNSLKPDDTAVYYCAAYPLSGYDYWGQGTQVTVSS | high polyreactivity |
| QVQLVESGGGLVQAGGSLRLSCADSGFIFYDYTMGWYRQAPGKERELVAVISRGGSTYYADSVKGRFTISRDNAKNTVYLQMNSLNPEDSAVYYCAARPRWYTFTRQEYDYWGQGTQVTVSS | high polyreactivity |
| QVQLVESGGGIVQAGGSLRLSCAASGSILYFNAMGWYRQAPGKERELVAAISRTGSRTYYADSVKGRFTISRDNAKNTVYLQMNSLKPEDTAVYYCAAYNGITSHLRFDYWGQGTQVTVSS | high polyreactivity |
| QVQLVESGGGLVQAGGSLRLSCAASGFTFTRYALGWYRQAPGKERELVAAISWSGGSTYYADSVKGRFTISRDNAKNTVYLQMNSLKPEDTAVYYCAKRGTVRQGGYGYWGQGTQVTVSS | high polyreactivity |
| QVQLVESGRGLVQAGGSLRLSCAASGSTFAPYTMGWYRQAPGKERELVAAISWNGGRTSYADSVKGRFTISRDNAKNTVYLQMNSLKPEDTAVYYCATRRIWTQSYDGGLYGYYYWGQGTQVTVSS | high polyreactivity |

| Sequence | polyreactivity (PSR sort gate) |
| --- | --- |
| QVQLVDSGGGLVQAGGSLRLSCAASGSIFYVNAMGWYRQAPGKERELVASITQSGGSTYYADSVKRRFTISRDNAKNTVDLQMNILKPEDTSVYYCNADIHVYPTRTRYYYWGQGTQVTVSS | low polyreactivity |
| PVQLVESGGGLVQAGGSLRLSCAASGSTFLYSAMGWYRQAPGKERELVAGISAAGGSSYYADAVKGRFTISRDNAKNTVYIQMNSLKPEDTAVYYCNATRVVIRHSYDYWGQGTQVTVSS | high polyreactivity |
| QVQLVESGGGLVQAGGSLRLSCADSVSIFRVNAKRWYTQAPGKERELVAGISSRGGTSTYYADSVKGRFTISRDNAKNTVYLQMNSLKPEDTAVYYCNKTDITTSRHDYWRQGTQVTVSS | low polyreactivity |
| QVQIVESGGGLVQAGGSLRLICAASGSTFSEYAMGWYRQAPGKERELVAAIRWSGGSTSYADSVKGRFTISRVNAKNTVYLQMNSLKPEDTAVYYCAAERFWYDGEVKLYVLSYYWGQGTQVTVSS | low polyreactivity |
| QVQLVESGGGLVQAGGSLRLSCAASGSIFRYNVMGWYRQAPGKERELVAAISYTGGRKYYADSVKGRFTISRDNAKNTVYLQMNRLKPEETAVYDCAALGWSGRYRYDYWGQGTQVTVAS | high polyreactivity |
| QVQLVESGGGLVQAGCSLRLSSAASGIIFSHNAMGWYRQAPGKERELVDDIDWSGGSTYYADSVKGRFTISRDNAKNTVYLQMNSLKPEDTAVYYCAAEYRDYVPVNDTGDYWGQGTQVTVSS | low polyreactivity |
| QVQLVESGGGLVQAGGSLRLSCAASGRINAMGWYRQAPGKERELVAVITLRGGSTYYADSVKGRFTISRDNAKNTGYLQMNSLKPEDTAVYYCAAETLVSFWFDYWGQGTQVTVSS | low polyreactivity |
| QVHHVESGGGLVQAGGSLRLSCAASGFIFTYNAMGWYRQAPGKERELVAAIRSGTNTSYADSVKGRFTISRDNAKNTVYLQMNSLKPEDTAVYYCNREVPEYQGFITPDGYWGQGTQVTVSS | low polyreactivity |
| QDQLVESGGGLVQAGGSLRLSCAASGITLFYYAMGWYRQAPGKERELVAVISASGGSTYYADSVKGRFTISRDNAKNTVYLQMNSLKQEDTAVYYCAAVAYWRSSSWYYYWGLGTQVTVSS | high polyreactivity |
| QVQLVESGGGLVQAGGSLRLSCAASGFTFRFNAMGWYIQAPGKERELVAAIRQSGGSTYYADSVKGRFTISRDNAKNTVYLQMNSLKPEDTAVYYCATRYFTGYGLRPQFYYWGQGTQVTVSS | high polyreactivity |
| QVQLVESGGGLVQAGGSLRLSCAASGIFTNNAMGWYRQAPGKERELVAAITIRGGSTYYADSVKGRFTISRDNAKNTVYLQMNSLKPEDTAVYYCAARGLGYTDLRSVHMYYWGQGTQVTVSS | high polyreactivity |
| QVQLVESGGGLVQAGGSLRLSCVASGRTFSRYAMGWYRQAPGKERELVAAISRRGGSTYYADSVKGRFTISRDNAKNTVYLQMNSLKPEDTAVYYCAAGYITWGSGNWVVTPYDYWGLGTQVTVSS | high polyreactivity |
| QVQLVESGGGLVQAGGSLRLSCAASGFTFYWYAMGWYRKAPGKERELVAAISSSGGRTYYADSVKGRFTISRDNAKNTVYLQMNSLKPEDTAVYYCAAAHTREYYWGQGTQVTVSS | high polyreactivity |
| QVQLVESGGGLVQAGGSLRLSCAASGSIFFPNAMGWYRQAPGKERELVAAITSTSTNYADSVKGRCTISRDNAKNTVYLQMNSLKPEDTAVYYCAADGEFRRAWYEGVYWGQGTQVTVSS | low polyreactivity |
| QVQLVESGGGLVQAGGSLRLSCAASGRILWWYAMAWYRQAPGKERELVATITYSGGSTYADSVKGRFTISRDNAKNTVYLQMNSLKPVDTAVYYCAARLALYYGKSVYWGQGTQVTVSS | high polyreactivity |
| QVQLQESGDGLVQAVGSLRLSCAARGYISGYYYMGWYRQAPGKERELVAGIDAFGSSTNYADCVKGRFTISRDNAKNTVYLQMNSLKPEDTAVYYCAARPDGDRLFSYWGQGTQVTVSS | low polyreactivity |
| QVQLVESGGGLVQAGGSLRLSCPASGFNFPAYTMGSYRQAPGKERELVAAITSSGGNTYYADSVKGRFTISRDNAKNTVYFQMNSLKPEDTAVYYCATVSVRWPSNDHVRYDYWGQGTQVTVSS | low polyreactivity |
| QVQLVESGGGLVQAGGSLRLSCAASGFTFSRNAMGWYRQAPGKERELVAAIDSGGSTDYADSVKGRFTISRDNAKNTVYLQLNSLKPEDTAVYYCAKASSATRYVQLRQDYDYWGQGTQVTVSS | low polyreactivity |
| QVQLVESGGGLVQAGGSLRLSCAASGFTFLFYAKGWYRHAPGKEMELVAAISWSGDTTYYADSVKGRFTISLDNSKNTVYLQMNSLKPEDTAVYYCNAESNIFGYDYWGQGTQVTVTS | high polyreactivity |
| QVLLVESGGGLVQSGRSLRLSCAASGLIFSRYAMGWYRPAPGKERELVAAITSGTSTYYADSVKGRFTISRDNAKNTVYLQLNSLIPEDTAVYYCAARWLTFNARYYPYYYWGQGTQVTVSS | high polyreactivity |
| QVQLVESGGGLVQAGGSLRLSCAASGRTFYGNAMGWYRQAPGKERELVAAISWSGGGTYYADSVKGRFTISRDNAKNTVYLQMNSLKPEDTAVYYCAAQFGRKGSGVWTRPENYWGQGTQVTVSS | high polyreactivity |
